Reference: article PMC4264578
Like-named read-outs stand apart in the source and are kept apart here.

How the values were obtained:
Experiment in all cases: EMSA
GST-SUV39H1 [1] = biological target: T1, GST-SUV39H1 (UniProt O43463 1-412)
T1 sequence: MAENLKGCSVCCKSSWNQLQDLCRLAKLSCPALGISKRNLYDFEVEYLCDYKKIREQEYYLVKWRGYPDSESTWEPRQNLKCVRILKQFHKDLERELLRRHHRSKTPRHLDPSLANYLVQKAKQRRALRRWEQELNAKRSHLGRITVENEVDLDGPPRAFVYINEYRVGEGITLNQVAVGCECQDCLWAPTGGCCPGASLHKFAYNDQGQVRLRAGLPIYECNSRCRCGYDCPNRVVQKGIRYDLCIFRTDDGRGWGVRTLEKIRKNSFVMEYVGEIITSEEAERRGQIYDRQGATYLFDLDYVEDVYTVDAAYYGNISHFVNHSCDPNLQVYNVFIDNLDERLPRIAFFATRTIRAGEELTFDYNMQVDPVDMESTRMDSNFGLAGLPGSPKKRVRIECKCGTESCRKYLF

GST-SUV39H1 [2] = biological target: T1, GST-SUV39H1; remark: listed apart in the source
GST-SUV39H1 [3] = biological target: T1, GST-SUV39H1; remark: listed apart in the source

B1: (TTAGGG)10 DNA (ssDNA)
DNA: TTAGGGTTAGGGTTAGGGTTAGGGTTAGGGTTAGGGTTAGGGTTAGGGTTAGGGTTAGGG
- binding result (GST-SUV39H1 [1]): no binding

B2: (UUAGGG)10 TERRA RNA (ssRNA)
RNA: UUAGGGUUAGGGUUAGGGUUAGGGUUAGGGUUAGGGUUAGGGUUAGGGUUAGGGUUAGGG
- binding result (GST-SUV39H1 [2]): binds

Binder: UUAGGGUUAGGGUUAGGGUUAGGGUUAGGGUUAGGGUUAGGG (ssRNA) [(UUAGGG)7 TERRA RNA]
- binding result (GST-SUV39H1 [3]): binds
